Source: paper PMC7195849 (Science signaling, 2019)
Ends that are not written are not given here. * marks the point of attachment. Biotin = O=C1N[C@H]2[C@H](CS[C@H]2CCCCC(=O)*)N1

T1: GST-PKCθ-C2^WT (GST fusion of the C2 domain of human PKCθ, aa 1–144) (human, UniProt Q04759 1-144)
T1 sequence (looked up): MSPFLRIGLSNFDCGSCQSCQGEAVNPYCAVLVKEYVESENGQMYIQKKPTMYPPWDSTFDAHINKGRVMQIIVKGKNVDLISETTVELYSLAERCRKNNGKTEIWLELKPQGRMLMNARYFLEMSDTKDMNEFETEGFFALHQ


What was measured:
PKCθ C2 domain, 1-144 = PKCθ C2 domain, 1-144 (UniProt Q04759); assay: ELISA, immobilized biotin-peptide, soluble GST-C2; settings: reference: unphosphorylated Y126 peptide; sites Y126
[1] = target: T1, GST-PKCθ-C2^WT (GST fusion of the C2 …); assay: ELISA

| Molecule | binding against the reference (PKCθ C2 domain, 1-144) | binding result [1] |
| --- | --- | --- |
| Zap70 (from UniProt P43403) pY126 peptide | stronger |  |
| Biotin-AMVRDYVRQTWK [Zap70 peptide Y126 (non-phosphorylated), N-terminally biotinylated] |  | binds |
